Measured values published in patent US20190167709A1.

Biological target: CD20 (B-cell surface antigen CD20 on human Burkitt's B-cell non-Hodgkin's lymphoma Raji cells) (human) (UniProt P11836)
Assay: cell-based or functional assay

Chain of UniProt P11836 (P11836 whole entry): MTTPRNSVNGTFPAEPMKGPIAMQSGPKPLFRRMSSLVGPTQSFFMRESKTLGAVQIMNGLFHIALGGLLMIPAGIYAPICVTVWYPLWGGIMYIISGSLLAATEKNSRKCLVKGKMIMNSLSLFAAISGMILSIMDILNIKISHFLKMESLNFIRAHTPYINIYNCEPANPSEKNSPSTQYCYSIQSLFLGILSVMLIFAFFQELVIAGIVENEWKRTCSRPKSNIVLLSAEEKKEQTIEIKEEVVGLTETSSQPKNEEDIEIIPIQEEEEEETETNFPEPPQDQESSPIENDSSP

- apoptosis induction, fold over untreated, Raji B-cells; 5 µM Fab′-MORF1 + P-MORF2/v3 (fold compared to untreated): 7
- apoptosis of Raji B-cells, P-MORF2/v10 against P-MORF2/v3 (0.5 µM Fab′, MORF1:MORF2 = 1:1 or 1:10) (fold against P-MORF2/v3): 2
- apoptotic cells, annexin V/PI staining, Raji B-cells; 1 µM Fab′-MORF1 and equimolar P-MORF2/v3: 40%
- apoptotic cells, fold over untreated, annexin V/PI staining, Raji B-cells; 1 µM Fab′-MORF1 and equimolar P-MORF2/v3 (fold compared to untreated): > 4
- apoptotic index (%), Annexin V/PI binding assay, Raji B-cells, 48 h; consecutive Fab′-MORF1 then Copolymer-MORF2, 0.5 µM, valence = 10, MORF1:MORF2 1:1: 50%
- apoptotic index (%), Annexin V/PI binding assay, Raji B-cells, 48 h; consecutive Fab′-MORF1 then Copolymer-MORF2, 1 µM, valence = 3, MORF1:MORF2 1:1: 37%
Substance: Fab′-MORF1 conjugate (Fab′ fragment of the mouse anti-human CD20 IgG2a mAb 1F5 tethered to the 3′ end of morpholino MORF1 via a thioether bond)
